The numbers were not newly measured in patent US20260193255A1, “7-AZAINDOLE COMPOUNDS, PREPARATION METHOD THEREFOR, AND USE THEREOF” (Fudan University, priority 2022, published 2026), which cites them from elsewhere.

The subject of the series is cachectic patients. As to conditions: 30 mg/kg, Phase II; cited from earlier work.

B1: Bimagrumab: antibody inhibitor of ActRIIB under development by Novartis (antibody, chains of the INN, looked up, V domains shown)
VH: QVQLVQSGAEVKKPGASVKVSCKASGYTFTSSYINWVRQAPGQGLEWMGTINPVSGSTSYAQKFQGRVTMTRDTSISTAYMELSRLRSDDTAVYYCARGGWFDYWGQGTLVTVSS
VL: QSALTQPASVSGSPGQSITISCTGTSSDVGSYNYVNWYQQHPGKAPKLMIYGVSKRPSGVSNRFSGSKSGNTASLTISGLQAEDEADYYCGTFAGGSYYGVFGGGTKLTVL
On to B1, for which the “Increase of muscle volume” value was 5.0-7.8%.
